The labels stand for the following.
T1: 14-3-3ζΔC12 (human, UniProt P63104 1-233)
T1 construct: N-terminal glycine retained after TEV cleavage of the His tag; 14-3-3ζ, human, full-length construct with the 12 C-terminal residues deleted; Unlabelled for ITC; 15N, 13C, 2H labelled for the NMR titrations; also called 14-3-3ζ with the C-terminal 12 residues removed; source: E. coli BL21 (DE3) pLysS, purified (Ni Sepharose, TEV cleavage, second Ni Sepharose pass); not shown: His tag, N-terminal, …
T1 sequence: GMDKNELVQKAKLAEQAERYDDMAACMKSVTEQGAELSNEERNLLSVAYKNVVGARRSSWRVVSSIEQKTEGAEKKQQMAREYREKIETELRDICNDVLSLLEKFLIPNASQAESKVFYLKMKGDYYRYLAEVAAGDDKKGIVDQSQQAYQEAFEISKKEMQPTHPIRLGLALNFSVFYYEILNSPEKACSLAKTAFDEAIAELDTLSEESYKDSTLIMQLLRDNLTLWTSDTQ

T2: Chibby 18-mer (Homo sapiens, UniProt Q9Y3M2)
T2 chain: KTPPRKSA[pS]LSNLHSLDR

T3: Chibby 11-mer (Homo sapiens, UniProt Q9Y3M2)
T3 chain: H-KTPPRKSA[pS]LS-NH2

T4: Chibby 13-mer (Homo sapiens, UniProt Q9Y3M2)
T4 chain: KTPPRKSA[pS]LSNL

T5: Chibby 7-mer S22P (Homo sapiens, UniProt Q9Y3M2)
T5 chain: RKSASLP

T6: Chibby 7-mer (Homo sapiens, UniProt Q9Y3M2)
T6 chain: Ac-RKSA[pS]LS-NH2

T7: Chibby 13-mer S22P (Homo sapiens, UniProt Q9Y3M2)
T7 chain: KTPPRKSASLPNL

T8: Chibby 18-mer L24A (Homo sapiens, UniProt Q9Y3M2)
T8 chain: KTPPRKSASLSNAHSLDR

T9: 14-3-3ζ K49A (human, UniProt P63104 1-245, K49A)
T9 construct: N-terminal glycine retained after TEV cleavage of the His tag; 14-3-3ζ, human, with the K49A mutation introduced into 14-3-3ζ; source: purified by Ni Sepharose with TEV cleavage as all 14-3-3ζ constructs; not shown: His tag, N-terminal, cleaved
T9 sequence: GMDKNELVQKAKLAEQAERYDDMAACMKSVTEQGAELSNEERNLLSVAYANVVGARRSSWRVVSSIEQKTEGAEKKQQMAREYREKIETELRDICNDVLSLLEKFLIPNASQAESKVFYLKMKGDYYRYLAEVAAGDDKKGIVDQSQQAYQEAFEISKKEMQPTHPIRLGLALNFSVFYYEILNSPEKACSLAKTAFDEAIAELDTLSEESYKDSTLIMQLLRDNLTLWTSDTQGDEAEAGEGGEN

T10: 14-3-3ζΔC12 (human, UniProt P63104 1-233)
T10 construct: N-terminal glycine retained after TEV cleavage of the His tag; 14-3-3 zeta, human, full-length 14-3-3ζ with the 12 C-terminal residues deleted; source: E. coli BL21 (DE3) pLysS, purified (Ni Sepharose, TEV cleavage, second Ni Sepharose pass); not shown: His tag, N-terminal, cleaved
T10 sequence: T1 sequence

T11: 14-3-3ζ K49A (human, UniProt P63104 1-245, K49A)
T11 construct: N-terminal glycine retained after TEV cleavage of the His tag; 14-3-3 zeta, human, with the K49A mutation introduced into 14-3-3ζ (the full-length construct); they say that all 14-3-3ζ constructs were purified in the same way; source: E. coli, purified (Ni Sepharose, TEV cleavage, second Ni Sepharose pass); not shown: His tag, N-terminal, cleaved
T11 sequence: T9 sequence

T12: 14-3-3ζ (human, UniProt P63104 1-245)
T12 construct: N-terminal glycine retained after TEV cleavage of the His tag; 14-3-3 zeta, human, ORF purchased from GeneCopoeia, full-length construct; Dimer (~56 kDa); the stoichiometry n counts on the 14-3-3 monomer; also called full-length 14-3-3ζ; source: E. coli BL21 (DE3) pLysS, purified (Ni Sepharose, TEV cleavage, second Ni Sepharose pass); not shown: His tag, N-terminal, cleaved
T12 sequence: T9 sequence with A50K

B1: pCby 13-mer (peptide)
peptide: KTPPRKSA[pS]LSNL
notes: Chibby (Cby), human, residues 12-24; free NH2 and COOH ends; also called phosphorylated Cby peptide; source: synthetic peptide, bought: GenScript USA Inc
B2: 14-3-3ζ (protein)
chain: MDKNELVQKAKLAEQAERYDDMAACMKSVTEQGAELSNEERNLLSVAYKNVVGARRSSWRVVSSIEQKTEGAEKKQQMAREYREKIETELRDICNDVLSLLEKFLIPNASQAESKVFYLKMKGDYYRYLAEVAAGDDKKGIVDQSQQAYQEAFEISKKEMQPTHPIRLGLALNFSVFYYEILNSPEKACSLAKTAFDEAIAELDTLSEESYKDSTLIMQLLRDNLTLWTSDTQGDEAEAGEGGEN
B3: 14-3-3ζ (human, full-length) (natural protein)
chain: T9 sequence with A50K
notes: N-terminal glycine retained after TEV cleavage of the His tag; 14-3-3ζ, human, ORF bought from GeneCopoeia, in Gateway pDEST17; full-length; Dimer in the crystal; the ITC stoichiometry counts on the 14-3-3 monomer; also called WT 14-3-3ζ; source: E. coli BL21 (DE3) pLysS, purified (Ni Sepharose, TEV cleavage, second Ni Sepharose pass); not shown: His tag, N-terminal, cleaved
B4: pCby 18-mer (peptide)
peptide: KTPPRKSA[pS]LSNLHSLDR
notes: Chibby (Cby), human, residues 12-29; free NH2 and COOH ends; also called Cby 18-mer WT; WT Cby 18-mer; source: synthetic peptide, bought: GenScript USA Inc
B5: pCby S22P 18-mer (peptide)
peptide: KTPPRKSA[pS]LPNLHSLDR
notes: Chibby (Cby), human, residues 12-29 with S22P; free NH2 and COOH ends; also called Cby 18-mer S22P; source: synthetic peptide, bought: TUFTS University Core Facility
B6: pCby 13-mer (peptide)
peptide: KTPPRKSA[pS]LSNL
notes: Chibby (Cby), human, residues 12-24; source: synthetic peptide, bought: GenScript USA Inc
B7: pCby 18-mer (peptide)
peptide: KTPPRKSA[pS]LSNLHSLDR
notes: Chibby (Cby), human, residues 12-29; also called Cby 18-mer WT; source: synthetic peptide, bought: GenScript USA Inc
B8: pCby S22P 18-mer (peptide)
peptide: KTPPRKSA[pS]LPNLHSLDR
notes: Chibby (Cby), human, residues 12-29 with S22P; also called Cby 18-mer S22P; source: synthetic peptide, bought: TUFTS University Core Facility

Data set [1] has as its target T1, 14-3-3ζΔC12. As to the kind of experiment: ITC; VP-ITC, 25°C; ~1-2 mM peptide titrated in 5 uL aliquots into ~100-200 uM 14-3-3ζ in the cell; 50 mM sodium phosphate, 100 mM NaCl, 1 mM DTT, pH 6.8; one-site model; in duplicate. The settings on record: both partners purified. For orientation: Isothermal titration calorimetry measures the heat released or taken up as one component is titrated into another.

The target of a further data set is T2, Chibby 18-mer. Description: ITC.
Another data set has as its target T3, Chibby 11-mer. As to the kind of experiment: ITC.
The target in the next data set is T4, Chibby 13-mer. Description: ITC.
A further data set deals with T5, Chibby 7-mer S22P. Description: ITC.
A further data set concerns the target T6, Chibby 7-mer. As to the kind of experiment: ITC.
Another data set has as its target T7, Chibby 13-mer S22P. Description: ITC.
For the next data set, the target named is T8, Chibby 18-mer L24A. Description: ITC.
Data set [2] concerns the molecule itself. As to the kind of experiment: crystal structure; 14-3-3ζ (10 mg/mL) co-crystallised with the phosphorylated Cby 18-mer (protein:peptide 1:4), 20 mM Tris pH 7.5, 100 mM NaCl; reservoir 200 mM NH4HCO2, 16-20% PEG 3350; 4°C; 2.41 Å.
For data set [3], the target named is B3. Description: ITC; VP-ITC, 25°C; ~1-2 mM peptide titrated in 5 uL aliquots into ~100-200 uM 14-3-3ζ in the cell; 50 mM sodium phosphate, 100 mM NaCl, 1 mM DTT, pH 6.8; one-site model; in duplicate. The conditions noted are these: both partners purified.
In data set [4] the target is T9, 14-3-3ζ K49A. The description is as above. The conditions noted are these: both partners purified.
The target of data set [5] is T10, 14-3-3ζΔC12. As to the kind of experiment: ITC; duplicate set of titrations; 5 uL aliquots of ~1-2 mM peptide titrated into the 1.4 mL cell with ~100-200 uM 14-3-3ζ; 25 °C; 50 mM sodium phosphate, 100 mM NaCl, 1 mM DTT, pH 6.8; one-site model; n per 14-3-3 monomer. The settings on record: both partners purified.
In data set [6] the target is T11, 14-3-3ζ K49A. The description is as above. The conditions noted are these: both partners purified.
A further data set deals with T12, 14-3-3ζ. The data set is described as above. The conditions noted are these: both partners purified.

A word on the Kd: it is the constant that tells how readily two partners part at equilibrium. Lower therefore signals a tighter complex. For orientation: stoichiometry N means the number of molecules, sites or subunits per partner or assembly.

Positions count from the first letter of the chain named. In names and notes the source's numbering stands. Square brackets hold non-standard residues; d marks the D form. Ends that are not written are not given here. pS = N[C@@H](COP(=O)(O)O)C(=O)O

As for B1, in the data set with 14-3-3ζΔC12 [1], the Kd is 14.9 µM, the dH is -2.08 ± 0.03 kcal/mol and the “stoichiometry N” value was 0.99.

For the molecule B2, the Kd is around 5 µM with Chibby 18-mer; around 18 µM with Chibby 11-mer; around 15 µM with Chibby 13-mer; around 3 µM with Chibby 7-mer S22P; around 44 µM in the data set with Chibby 7-mer; around 1 µM in the data set with Chibby 13-mer S22P. Further, the equilibrium dissociation constant (Kd) in the data set with Chibby 18-mer L24A was around 21 µM.

As for B3, the binding result in data set [2] is listed as “binds”.

On to B4, for which the results for the Kd (in data set [3]; with 14-3-3ζΔC12 [1]; in the data set with 14-3-3ζ K49A [4]) were 4.6 µM, 6.8 µM and 3.8 µM, respectively. In addition, the dH in data set [3] was -4.35 ± 0.05 kcal/mol; with 14-3-3ζΔC12 [1] it was -3.35 ± 0.06 kcal/mol; with 14-3-3ζ K49A [4], -4.16 ± 0.05 kcal/mol. Besides, the figures for the “stoichiometry N” value (in data set [3]; with 14-3-3ζΔC12 [1]; with 14-3-3ζ K49A [4]) were 0.96, 1.04 and 1.01, respectively.

For B5, in data set [3], binding was characterised by a dissociation constant (Kd) of 0.36 µM, the dH is -8.03 ± 0.02 kcal/mol and the “stoichiometry N” value was 1.05. Further, in the data set with 14-3-3ζ K49A [4], the Kd amounted to 1.9 µM, the dH was -7.13 ± 0.03 kcal/mol and the “stoichiometry N” value was 1.07.

As to B6, in the data set with 14-3-3ζΔC12 [5], the Kd turned out to be 14.5 µM and the “stoichiometry N” value was found to be 1.06.

Consider B7, for which the Kd was found to be 8.5 µM with 14-3-3ζΔC12 [5], 5.5 µM with 14-3-3ζ K49A [6] and 4.9 µM with 14-3-3ζ. For the same molecule, the results for the “stoichiometry N” value with 14-3-3ζΔC12 [5], in the data set with 14-3-3ζ K49A [6] and in the data set with 14-3-3ζ were 1.02, 1.07 and 0.94, respectively.

For the molecule B8, in the data set with 14-3-3ζ K49A [6], the Kd worked out at 1.8 µM and the “stoichiometry N” value was found to be 0.97. In the data set with 14-3-3ζ, the Kd turned out to be 0.38 µM and the “stoichiometry N” value is 1.08.

The record behind these values is publication PMC4409382, “Structural Analysis of the 14-3-3ζ/Chibby Interaction Involved in Wnt/β-Catenin Signaling” (PLoS ONE, 2015).
